Measured values as given in US20110098212A1.
Each block holds one substance with its values, some of them ahead of it.

Columns and labels:
Assay in all cases: cell-based or functional assay
[1] = target: chemokine receptor CCR2 (human) (UniProt P41597)
[2] = target: chemokine receptor CCR4 (human) (UniProt P51679)
[3] = target: chemokine receptor CCR6 (human) (UniProt P51684)
[4] = target: human chemokine receptor CCR5 (human) (UniProt P51681)
[5] = target: chemokine receptor CCR8 (human) (UniProt P51685)

Substance: CCL20/MIP-3alpha (from UniProt P78556 27-96) (ligand)
EC50, calcium mobilisation in CCR6-CHO cells [3]: 1.27 nM

Substance: GS-U83A (from UniProt P52460 5-97) (ligand)
reduction of HIV-1 JRCSF infection of CEM-NKR-CCR5-luc cells at 1 uM [4]: 93%
blocking of CCL1 (1 nM) induced chemotaxis of HUT78 cells by 100 nM pre-treatment [5]: 10%

Substance: GSRIEGR-U83A (from UniProt P52460 5-97) (ligand)
blocking of CCL22 (10 nM) induced chemotaxis of HUT78 cells by 100 nM pre-treatment [2]: 25%

More lines, now with the values ahead:

calcium mobilisation, share of THP-1 cells responding [1]: > 95%
Substance: CCL2/MCP-1 (from UniProt P13500 24-99) (ligand)

EC50, calcium mobilisation in CCR4-CHO cells [2]: 0.24 nM
chemotaxis of HUT78 cells, concentration of maximal efficacy [2]: 1 nM
Substance: CCL17/TARC (from UniProt Q92583 24-94) (ligand)
